Results reported in patent publication US7169567B1, “Screening assay utilizing the PTH receptor” (The General Hospital Corporation, priority 1998, dated 2007).
pEC50: −log10 of the molar value. Where no end group is shown, it is not given here.

Columns and labels:
[1] = target: T1, rat secretin receptor (Rattus norvegicus, UniProt P23811); assay: cAMP response in COS-7 cells transfected with the rat secretin receptor; type: cell-based; details: PTH(1–14) 100 mM
T1 construct: expressed in transfected cells; host or cells: COS-7, transient
T1 sequence (P23811 26-449): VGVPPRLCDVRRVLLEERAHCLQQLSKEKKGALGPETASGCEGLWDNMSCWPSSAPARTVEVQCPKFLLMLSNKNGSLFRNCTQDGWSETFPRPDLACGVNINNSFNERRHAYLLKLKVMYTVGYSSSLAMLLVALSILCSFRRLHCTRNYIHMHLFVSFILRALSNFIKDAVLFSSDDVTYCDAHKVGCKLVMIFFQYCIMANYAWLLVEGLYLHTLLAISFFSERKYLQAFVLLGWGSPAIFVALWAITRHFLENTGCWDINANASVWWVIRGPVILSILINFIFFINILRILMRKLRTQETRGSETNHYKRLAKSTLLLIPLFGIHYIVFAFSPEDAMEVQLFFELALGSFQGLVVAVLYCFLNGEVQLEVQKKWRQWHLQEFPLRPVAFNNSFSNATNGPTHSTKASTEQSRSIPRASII
Protocol: FIG. 6. Specificity of the Truncated Ligand and PTH Receptor. COS-7 cells transiently transfected with either rWT-HA (A), rΔNt (B), or the intact rat secretin receptor (C), were treated with the indicated peptides for 60 min at 22° C., and the resulting intracellular cAMP levels were quantified by RIA. […] 1 mM and secretin(1–13), 100 mM. Shown are data (mean±s.e.m.) from one experiment performed in duplicate, and this was repeated twice more with equivalent results.
(§1) Intracellular cyclic AMP: Transfected COS-7 or HKRK-B7 cells were rinsed with 500 ml of binding buffer, (50 mM Tris-HCl, pH 7.7, 100 mM NaCl, 5 mM KCl, 2 mM CaC12, 5% heat-inactivated horse serum, 0.5% heat-inactivated fetal bovine serum) and 200 ml of IBMX buffer (DMEM containing 2 mM IBMX, 1 mg/ml bovine serum albumin, 35 mM Hepes-NaOH, pH 7.4) and […] of binding buffer or binding buffer containing various amounts of peptide were added. The plates were incubated for 60 minutes at room temperature. The buffer was then withdrawn and the cells were frozen on dry ice, treated with 0.5 ml of 50 mM HCl, and refrozen. After the thawing, the lysate was diluted 30-fold in dH20 and an aliquot was analyzed for cAMP content by determined radioimmunoassay using unlabeled cAMP as a standard.
In order to test whether PTH(1–14) and rΔNt retained the appropriate recognition specificity for the corresponding parent ligand, cross-reactivity experiments were done using secretin ligands and the cloned rat secretin receptor. […] Cells expressing rΔNt responded to PTH(1–34) and PTH(1–14) but not to secretin(1–27) (1 mM) or secretin(1–13) ([…]) (FIG. 5B). Thus, the recognition specificity of PTH(1–14) and rΔNt appear to replicate that of the intact parent molecules. No evidence for relaxed specificity was detected in these studies (FIG. 6).

[2] = target: T2, human PTH-1 receptor (Homo sapiens, UniProt Q03431); assay: cAMP-stimulating activity in HKRK-B7 cells (LLC-PK1 stably transfected with human PTH-1 receptor), RIA; type: cell-based; parameters: maximum cAMP response: dose or concentration left out as unconfirmed; details: for increase in intracellular cAMP levels relative to the basal cAMP level: 60 min at 22° C.
T2 construct: expressed in transfected cells; host or cells: HKRK-B7 (LLC-PK1 stably transfected, pCDNA-1-based plasmid)
T2 sequence (Q03431 27-593): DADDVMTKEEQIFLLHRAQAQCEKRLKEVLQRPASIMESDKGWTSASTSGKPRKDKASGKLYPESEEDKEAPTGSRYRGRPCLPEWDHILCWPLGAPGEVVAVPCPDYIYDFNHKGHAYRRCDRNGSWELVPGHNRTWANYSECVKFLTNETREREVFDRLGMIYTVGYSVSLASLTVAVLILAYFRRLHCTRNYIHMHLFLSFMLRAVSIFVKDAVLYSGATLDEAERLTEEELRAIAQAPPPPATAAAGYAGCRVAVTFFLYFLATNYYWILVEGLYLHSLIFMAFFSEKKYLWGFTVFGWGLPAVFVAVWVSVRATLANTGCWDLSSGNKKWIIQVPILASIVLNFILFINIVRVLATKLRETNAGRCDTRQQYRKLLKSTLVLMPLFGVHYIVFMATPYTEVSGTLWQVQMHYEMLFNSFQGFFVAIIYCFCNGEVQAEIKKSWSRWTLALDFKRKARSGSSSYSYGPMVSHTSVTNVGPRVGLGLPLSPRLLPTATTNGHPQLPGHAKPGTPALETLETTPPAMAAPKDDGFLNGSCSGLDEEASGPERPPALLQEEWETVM
Protocol: FIG. 2. cAMP-stimulating Activity of PTH Fragments in LLC-PK1 Cells. A) Rat PTH(1–34) analog or amino-terminal rPTH fragments were tested for cAMP-stimulating activity in an LLC-P1-derived cell line (HKRK-B7) stably transfected with the human PTH-1 receptor. Cells were treated with peptide at the indicated doses for 60 min at 22° C. Intracellular cAMP was measured by RIA, as described in Experimental Procedures. Shown are combined data (mean±s.e.m.) from 3 separate experiments, each performed in duplicate. B) HKRK-B7 cells, or untransfected LLC-PK1 were treated with rPTH(1–34) or rPTH(1–14), and intracellular cAMP was measured. Shown are data (mean±s.e.m.) from a single representative experiment performed in duplicate.
FIG. 3. Alanine-scan of PTH(1–14). HKRK-B7 cells were treated with 100 mM of one of 14 different rPTH(1–14) analogs, each having a different alanine-substitution at the indicated amino acid position. The resulting cAMP levels were determined as described in Experimental Procedures. Shown are the combined data (mean±s.e.m.) from three separate experiments, each performed in duplicate. The mean (mean±s.e.m.) basal cAMP levels observed in the three experiments was 2.1±0.1 pmole/well, and the maximum response to rPTH(1–34) at 0.1 mM was 254±16 pmole/well.
Cell Culture and DNA Transfection: COS-7 and HKRK-B7 cells were cultured at 37° C. in Dulbecco's modified Eagle's medium (DMEM) supplemented with fetal bovine serum (10%); penicillin G (20 units/ml), streptomycin sulfate (20 μg/ml) and amphotericin B (0.05 μg/ml) in a humidified atmosphere containing 5% CO2. Twenty-four to 16 hours prior to assay, cells in 24-well plates were shifted to a humidified incubator containing 5% CO2 that was set at 33° C. Stock solutions of EGTA/trypsin and antibiotics were from GIBCO; fetal bovine serum was from Hyclone Laboratories (Logan, Utah). Derivation and characterization of the HKRK-B7 cell line by stable transfection of LLC-PK1 cells with a pCDNA-1-based plasmid (In Vitrogen, San Diego, Calif.) encoding the hPTH-1 receptor was described previously (Takasu, H. and Bringhurst, F., Endocrinology, in press (1998)). These cells express PTH-1 receptors at a surface density of about 1×10^6 PTH-binding sites per cell. The HKRK-B7 cells were used for functional assays 24 to 72 hours after the cell monolayer reached confluency.
as §1
Amino-terminal peptide fragments based on the rat PTH sequence and ranging in length from PTH(1–9) to PTH(1–15) were synthesized and tested for activity in an LLC-PK1-derived cell line called HKRK-B7 which stably expresses high levels (1×10^6 receptors/cell) of the cloned human PTH-1 receptor (Takasu, H. and Bringhurst, F., Endocrinology, in press (1998)).

## PTH(1–14): Amino-terminal peptide fragment based on the rat PTH sequence, residues 1–14, C-terminally amidated (AVSEIQLMHNLGKH-NH2)
[1]
  cAMP response of secretin receptor cells (in words): did not respond
[2]; HKRK-B7 cells
  doses required for cAMP activation compared with the dose required for PTH(1–34): five to six orders of magnitude higher
  increase in intracellular cAMP levels relative to the basal cAMP level: about 20 fold
[2]; intact receptor
  potency relative to PTH(1–34) with the intact receptor: about five orders of magnitude weaker

## CCCC[C@H](NC(=O)[C@H](CCCNC(=N)N)NC(=O)[C@H](CCC(=O)O)NC(=O)[C@@H](NC(=O)[C@H](CO)NC(=O)[C@H](C)NC(=O)[C@H](CC(C)C)NC(=O)[C@H](Cc1c[nH]cn1)NC(=O)[C@H](CCCCN)NC(=O)CNC(=O)[C@H](CC(C)C)NC(=O)[C@H](CC(N)=O)NC(=O)[C@H](Cc1c[nH]cn1)NC(=O)[C@H](CCCC)NC(=O)[C@H](CC(C)C)NC(=O)[C@H](CCC(N)=O)NC(=O)[C@@H](NC(=O)[C@H](CCC(=O)O)NC(=O)[C@H](CO)NC(=O)[C@@H](NC(=O)[C@H](C)N)C(C)C)[C@@H](C)CC)C(C)C)C(=O)N[C@@H](CCC(N)=O)C(=O)N[C@@H](Cc1c[nH]c2ccccc12)C(=O)N[C@@H](CC(C)C)C(=O)N[C@@H](CCCNC(=N)N)C(=O)N[C@@H](CCCCN)C(=O)N[C@@H](CCCCN)C(=O)N[C@@H](CC(C)C)C(=O)N[C@@H](CCC(N)=O)C(=O)N[C@@H](CC(=O)O)C(=O)N[C@H](C(=O)N[C@@H](Cc1c[nH]cn1)C(=O)N[C@@H](CC(N)=O)C(=O)N[C@@H](Cc1ccc(O)cc1)C(N)=O)C(C)C [PTH(1–34), [Nle^8,21,Tyr^34]rPTH-(1–34)NH2]
[1]
  cAMP response of secretin receptor cells (in words): did not respond
[2]
  pEC50: ~8.70
[2]; HKRK-B7 cells
  increase in intracellular cAMP levels relative to the basal cAMP level: 50 fold
[2]; HKRK-B7 cells, mean±s.e.m. of three experiments, basal 2.1±0.1 pmole/well
  maximum cAMP response: 254±16 pmole/well
